Measurements taken from publication PMC3317225, “MsDpo4—a DinB Homolog from Mycobacterium smegmatis—Is an Error-Prone DNA Polymerase That Can Promote G:T and T:G Mismatches” (Journal of Nucleic Acids, 2012).

Key:
Experiment in all cases: steady-state primer extension, 6-FAM labelled primer, gel, Lineweaver-Burk
Type in all cases: biochemical, Mycolicibacterium smegmatis
[1] = substrate: Cc1cn([C@H]2C[C@H](O)[C@@H](COP(=O)(O)OP(=O)(O)OP(=O)(O)O)O2)c(=O)[nH]c1=O; conditions: template dG (mismatch G:T, misincorporation), 20 nM DNA T1P1, 10 nM enzyme, Mg2+, pH 8.0, 37°C (given for the primer extension assay), number in parentheses is standard error
From the text: (§1) steady-state primer extension, 6-FAM labelled primer, gel, Lineweaver-Burk on MsDpo4

[2] = substrate: Nc1nc2c(ncn2[C@H]2C[C@H](O)[C@@H](COP(=O)(O)OP(=O)(O)OP(=O)(O)O)O2)c(=O)[nH]1; conditions: template dT (mismatch T:G, misincorporation), 20 nM DNA T2P1, 10 nM enzyme, Mg2+, pH 8.0, 37°C (given for the primer extension assay), number in parentheses is standard error
From the text: as §1

[3] = substrate: Nc1ccn([C@H]2C[C@H](O)[C@@H](COP(=O)(O)OP(=O)(O)OP(=O)(O)O)O2)c(=O)n1; conditions: template dG (correct pair G:C), 20 nM DNA T1P1, 1 nM enzyme, Mg2+, pH 8.0, 37°C (given for the primer extension assay), number in parentheses is standard error
From the text: as §1

[4] = substrate: Nc1ncnc2c1ncn2[C@H]1C[C@H](O)[C@@H](COP(=O)(O)OP(=O)(O)OP(=O)(O)O)O1; conditions: template dT (correct pair T:A), 20 nM DNA T2P1, 1 nM enzyme, Mg2+, pH 8.0, 37°C (given for the primer extension assay), number in parentheses is standard error
From the text: as §1

B1: MsDpo4 (Mycolicibacterium smegmatis MC2 155) (protein)
chain: MTKWVLHVDLDQFLASVELRRRPDLRGQPVIVGGSGDPSEPRKVVTCASYEAREFGVHAGMPLRAAARRCPDATFLPSDPAAYDEASEQVMGLLRDLGHPLEVWGWDEAYLGADLPDESDPVEVAERIRTVVAAETGLSCSVGISDNKQRAKVATGFAKPAGIYVLTEANWMTVMGDRPPDALWGVGPKTTKKLAAMGITTVADLAVTDPSVLTTAFGPSTGLWLLLLAKGGGDTEVSSEPWVPRSRSHVVTFPQDLTERREMDSAVRDLALQTLAEIVEQGRIVTRVAVTVRTSTFYTRTKIRKLPAPSTDAGQIVDTALAVLDQFELDRPVRLLGVRLELAMDDVPRPAVTAGT
notes: msmeg_1014 in pGEX6P1, expressed as GST-MsDpo4 fusion in bacteria; single-chain Y-family polymerase
Km [1]: 165.5 (39.70) μM | Km [2]: 166.5 (39.01) μM | Km [3]: 4.3 (0.69) μM | Km [4]: 5.5 (1.54) μM
